Measured values taken from publication PMC9330763.

Molecular target: SAd36 fiber-T4 fibritin-SpT (simian (chimpanzee) adenovirus species E serotype 36 (SAd36) | bacteriophage T4)
Experiment: SDS-PAGE without boiling

Substance SAd36 fiber-T4 fibritin-SpT has a stoichiometry N of 3.
